{"source": "paper PMC4153603", "origin": "cited, not measured here", "key": {"Kv1.1 (Homo sapiens)": {"target": "Kv1.1 (Homo sapiens) (UniProt Q09470)", "sequence (Q09470 whole entry)": "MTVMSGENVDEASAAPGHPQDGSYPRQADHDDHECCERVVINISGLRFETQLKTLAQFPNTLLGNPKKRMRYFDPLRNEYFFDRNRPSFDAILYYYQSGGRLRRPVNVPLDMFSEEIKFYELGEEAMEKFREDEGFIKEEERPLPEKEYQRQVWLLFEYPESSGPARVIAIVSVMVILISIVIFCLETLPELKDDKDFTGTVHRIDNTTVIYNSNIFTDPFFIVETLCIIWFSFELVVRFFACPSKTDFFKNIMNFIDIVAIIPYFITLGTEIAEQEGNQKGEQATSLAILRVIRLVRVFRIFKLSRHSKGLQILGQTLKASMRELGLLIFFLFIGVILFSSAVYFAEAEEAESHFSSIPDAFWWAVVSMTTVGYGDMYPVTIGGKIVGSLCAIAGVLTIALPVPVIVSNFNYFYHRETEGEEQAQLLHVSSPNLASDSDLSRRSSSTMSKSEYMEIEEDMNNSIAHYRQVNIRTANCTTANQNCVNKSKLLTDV"}, "Kv1.3 (Homo sapiens)": {"target": "Kv1.3 (Homo sapiens) (UniProt P22001)", "sequence (P22001 whole entry)": "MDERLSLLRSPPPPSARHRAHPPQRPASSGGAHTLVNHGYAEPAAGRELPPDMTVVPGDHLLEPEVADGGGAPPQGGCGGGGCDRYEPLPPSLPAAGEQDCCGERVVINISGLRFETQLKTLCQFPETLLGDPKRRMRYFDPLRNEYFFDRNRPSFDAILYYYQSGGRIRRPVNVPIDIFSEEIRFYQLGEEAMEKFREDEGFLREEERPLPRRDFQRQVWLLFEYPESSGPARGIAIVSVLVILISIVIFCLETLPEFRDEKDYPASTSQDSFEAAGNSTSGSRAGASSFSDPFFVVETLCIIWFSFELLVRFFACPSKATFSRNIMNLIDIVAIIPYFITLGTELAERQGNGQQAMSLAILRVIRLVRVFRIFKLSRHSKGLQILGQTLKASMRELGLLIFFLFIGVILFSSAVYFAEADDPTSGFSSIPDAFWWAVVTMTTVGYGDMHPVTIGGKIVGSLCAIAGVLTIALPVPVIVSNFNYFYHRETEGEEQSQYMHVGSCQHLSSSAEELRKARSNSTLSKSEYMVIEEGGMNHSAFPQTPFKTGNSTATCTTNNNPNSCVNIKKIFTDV"}}, "data": [{"substance": "ShK (from UniProt P29187)", "values": [{"measurement": "Kd", "setting": "Kv1.1 (Homo sapiens)", "result": 0.028, "unit": "nM"}, {"measurement": "Kd", "setting": "Kv1.3 (Homo sapiens)", "result": 0.01, "unit": "nM"}]}]}
